Measured values from US20250257137A1 (IMBIOLOGICS, published 2025).
Where two headings read alike, the source gives them in different places.

Experiments:
HLA-G protein antigen [1] = molecular target: T1, HLA-G protein antigen (human, UniProt P17693 25-308); assay: SPR according to Example 1-4-1; HLA-G antigen
T1 construct: also called HLA-G antigen

HLA-G protein antigen [2] = molecular target: T1, HLA-G protein antigen; assay: ELISA according to Example 1-4-1
HLA-G protein antigen [3] = molecular target: T1, HLA-G protein antigen; assay: ELISA on HLA-G antigen, according to Example 1-4-1
[4] = molecular target: T2, Fcα/µ receptor (R&D systems) (UniProt Q8WWV6 17-450); assay: ELISA, Fcα/µ receptor coated at 100 ng/well; detection HRP anti-IgM (F5µ)
T2 sequence: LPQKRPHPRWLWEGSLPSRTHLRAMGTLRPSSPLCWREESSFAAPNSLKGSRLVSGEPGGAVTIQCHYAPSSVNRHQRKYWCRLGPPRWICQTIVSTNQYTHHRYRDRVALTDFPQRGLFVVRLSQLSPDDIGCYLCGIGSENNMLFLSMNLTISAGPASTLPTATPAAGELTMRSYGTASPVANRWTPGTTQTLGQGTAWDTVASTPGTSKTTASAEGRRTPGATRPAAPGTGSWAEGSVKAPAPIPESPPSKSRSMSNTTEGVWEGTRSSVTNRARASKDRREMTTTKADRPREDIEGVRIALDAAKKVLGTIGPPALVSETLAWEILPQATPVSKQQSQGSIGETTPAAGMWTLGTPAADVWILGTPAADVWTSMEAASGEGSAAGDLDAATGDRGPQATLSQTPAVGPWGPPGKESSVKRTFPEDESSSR

[5] = molecular target: T3, pIgR (polymeric Ig receptor; R&D systems) (UniProt P01833 19-638); assay: ELISA, pIgR coated at 100 ng/well; detection HRP anti-IgM (F5µ)
T3 construct: also called pIg receptor
T3 sequence (P01833 19-638 limits assumed): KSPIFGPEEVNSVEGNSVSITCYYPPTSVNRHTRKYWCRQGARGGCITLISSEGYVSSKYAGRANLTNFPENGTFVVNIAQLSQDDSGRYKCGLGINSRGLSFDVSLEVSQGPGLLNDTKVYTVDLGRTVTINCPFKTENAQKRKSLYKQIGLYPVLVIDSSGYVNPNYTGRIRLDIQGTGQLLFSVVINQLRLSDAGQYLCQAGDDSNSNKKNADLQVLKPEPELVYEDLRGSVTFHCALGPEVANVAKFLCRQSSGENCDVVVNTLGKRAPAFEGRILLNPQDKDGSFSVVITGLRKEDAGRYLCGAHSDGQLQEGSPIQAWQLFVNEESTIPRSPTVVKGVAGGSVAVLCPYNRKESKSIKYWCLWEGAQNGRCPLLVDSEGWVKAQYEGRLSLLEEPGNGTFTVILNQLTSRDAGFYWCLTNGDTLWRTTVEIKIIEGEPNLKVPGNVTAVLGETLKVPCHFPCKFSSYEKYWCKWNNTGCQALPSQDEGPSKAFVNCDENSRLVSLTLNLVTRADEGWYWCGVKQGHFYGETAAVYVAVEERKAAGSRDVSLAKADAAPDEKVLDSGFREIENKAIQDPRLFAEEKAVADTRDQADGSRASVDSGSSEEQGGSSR

[6] = molecular target: T4, HLA-G-6× his tag (IMBiologics) (human, UniProt P17693 25-308); assay: blocking ELISA: ILT-2 antigen coated at 150 ng/well, HLA-G-6× his added with the dilution, detection HRP anti-6× his; blocked ligand ILT-2
T4 construct: also called recombinant HLA-G protein

[7] = molecular target: T4, HLA-G-6× his tag (IMBiologics); assay: as above; remark: listed apart in the source
[8] = molecular target: T5, HLA-G naturally expressed on JEG-3 cells (human, UniProt P17693 25-338); assay: flow cytometry on JEG-3 cells that naturally express HLA-G; detection anti-IgM-PE or anti-IgG Fc-FITC; MFI
T5 construct: whole, on cells; also called HLA-G expressing cells; HLA-G receptor in the cell

B1: [(A2014)2-(IgD hinge region)2-(IgM Fc region)]6-(J chain)0 (Fc fusion)
heavy: QVQLQQSGPGLLKPSQTLSLTCAISGDSVSSNRAAWNWIRQSPSRGLEWLGRTYYRSKWYNDYAVSVQGRITLIPDTSKNQFSLRLNSVTPEDTAVYYCASVRAVAPFDYWGQGVLVTVSSASTKGPSVFPLAPSSKSTSGGTAALGCLVKDYFPEPVTVSWNSGALTSGVHTFPAVLQSSGLYSLSSVVTVPSSSLGTQTYICNVNHKPSNTKVDKKVEPKSCRNTGRGGEEKKKEKEKEEQEERETKTPECPSHTQPLGVIAELPPKVSVFVPPRDGFFGNPRKSKLICQATGFSPRQIQVSWLREGKQVGSGVTTDQVQAEAKESGPTTYKVTSTLTIKESDWLSQSMFTCRVDHRGLTFQQNASSMCVPDQDTAIRVFAIPPSFASIFLTKSTKLTCLVTDLTTYDSVTISWTRQNGEAVKTHTNISESHPNATFSAVGEASICEDDWNSGERFTCTVTHTDLPSPLKQTISRPKGVALHRPDVYLLPPAREQLNLRESATITCLVTGFSPADVFVQWMQRGQPLSPEKYVTSAPMPEPQAPGRYFAHSILTVSEEEWNTGETYTCVVAHEALPNRVTERTVDKSTGKPTLYNVSLVMSDTAGTCY
light: not shown
HLA-G protein antigen [1]
  Kd: 0.00232 nM
  koff: 3.51e-05 s⁻¹
  kon: 1.48e+07 M⁻¹ s⁻¹
HLA-G protein antigen [2]
  fold improvement of EC50 against the (A2014)-(IgGFc) control protein: ≥ 1000 fold
HLA-G protein antigen [3]
  EC50 (read off the curve): ~0.04 nM

B2: [(CMVpHLA)2-(linker)2-(IgG Fc region)-(IgM Fc region)]5-(J chain D105K) (Fc fusion)
chain (part 1 of 2): […]
chain (part 2 of 2): QDTAIRVFAIPPSFASIFLTKSTKLTCLVTDLTTYDSVTISWTRQNGEAVKTHTNISESHPNATFSAVGEASICEDDWNSGERFTCTVTHTDLPSPLKQTISRPKGVALHRPDVYLLPPAREQLNLRESATITCLVTGFSPADVFVQWMQRGQPLSPEKYVTSAPMPEPQAPGRYFAHSILTVSEEEWNTGETYTCVVAHEALPNRVTERTVDKSTGKPTLYNVSLVMSDTAGTCY
chain: […]
notes: not shown: IgG Fc
[4]
  binding result: no binding

B3: [(CMVpHLA)2-(linker)2-(IgG Fc region)-(IgM Fc region)]5-(J chain R106Q) (Fc fusion)
chain (part 1 of 2): […]
chain (part 2 of 2): QDTAIRVFAIPPSFASIFLTKSTKLTCLVTDLTTYDSVTISWTRQNGEAVKTHTNISESHPNATFSAVGEASICEDDWNSGERFTCTVTHTDLPSPLKQTISRPKGVALHRPDVYLLPPAREQLNLRESATITCLVTGFSPADVFVQWMQRGQPLSPEKYVTSAPMPEPQAPGRYFAHSILTVSEEEWNTGETYTCVVAHEALPNRVTERTVDKSTGKPTLYNVSLVMSDTAGTCY
chain: […]
notes: not shown: IgG Fc
[4]
  binding result: no binding

B4: [(CMVpHLA)2-(linker)2-(IgG Fc region)-(IgM Fc region)]5-(J chain R106A) (Fc fusion)
chain (part 1 of 2): […]
chain (part 2 of 2): QDTAIRVFAIPPSFASIFLTKSTKLTCLVTDLTTYDSVTISWTRQNGEAVKTHTNISESHPNATFSAVGEASICEDDWNSGERFTCTVTHTDLPSPLKQTISRPKGVALHRPDVYLLPPAREQLNLRESATITCLVTGFSPADVFVQWMQRGQPLSPEKYVTSAPMPEPQAPGRYFAHSILTVSEEEWNTGETYTCVVAHEALPNRVTERTVDKSTGKPTLYNVSLVMSDTAGTCY
chain: […]
notes: not shown: IgG Fc
[4]
  binding result: no binding

B5: [(CMVpHLA)2-(linker)2-(IgG Fc region)-(IgM Fc region)]5-(J chain R106V) (Fc fusion)
chain (part 1 of 2): […]
chain (part 2 of 2): QDTAIRVFAIPPSFASIFLTKSTKLTCLVTDLTTYDSVTISWTRQNGEAVKTHTNISESHPNATFSAVGEASICEDDWNSGERFTCTVTHTDLPSPLKQTISRPKGVALHRPDVYLLPPAREQLNLRESATITCLVTGFSPADVFVQWMQRGQPLSPEKYVTSAPMPEPQAPGRYFAHSILTVSEEEWNTGETYTCVVAHEALPNRVTERTVDKSTGKPTLYNVSLVMSDTAGTCY
chain: […]
notes: not shown: IgG Fc
[5]
  binding result: no binding

B6: [(CMVpHLA)2-(linker)2-(IgG Fc region)-(IgM Fc region)]5-(J chain N107F) (Fc fusion)
chain (part 1 of 2): […]
chain (part 2 of 2): QDTAIRVFAIPPSFASIFLTKSTKLTCLVTDLTTYDSVTISWTRQNGEAVKTHTNISESHPNATFSAVGEASICEDDWNSGERFTCTVTHTDLPSPLKQTISRPKGVALHRPDVYLLPPAREQLNLRESATITCLVTGFSPADVFVQWMQRGQPLSPEKYVTSAPMPEPQAPGRYFAHSILTVSEEEWNTGETYTCVVAHEALPNRVTERTVDKSTGKPTLYNVSLVMSDTAGTCY
chain: […]
notes: not shown: IgG Fc
[4]
  binding result: no binding

B7: (A2014)2-(IgG Fc region) (antibody, V domains shown)
VH: QVQLQQSGPGLLKPSQTLSLTCAISGDSVSSNRAAWNWIRQSPSRGLEWLGRTYYRSKWYNDYAVSVQGRITLIPDTSKNQFSLRLNSVTPEDTAVYYCASVRAVAPFDYWGQGVLVTVSS
VL: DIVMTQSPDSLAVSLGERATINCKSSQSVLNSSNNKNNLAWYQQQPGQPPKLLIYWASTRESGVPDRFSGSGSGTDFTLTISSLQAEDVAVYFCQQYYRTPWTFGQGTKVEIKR
notes: also called (A2014)-(IgG Fc); (A2014)-(IgGFc) control protein
HLA-G protein antigen [1]
  Kd: 0.0259 nM
  koff: 0.000305 s⁻¹
  kon: 1.18e+07 M⁻¹ s⁻¹
[6]
  IC50 (read off the curve): ~8 nM
[7]
  IC50 (read off the curve): ~30 nM
[8]
  EC50 (read off the curve): ~0.7 nM
